The supplement of paper PMC11246515
± gives the standard deviation of the averaged measurements.

Experiment: total protein half-life in vivo (active degradation + dilution); higher = more stable protein
[1] = E. coli NCM3722 delta-clpP delta-lon delta-hslV, growth: N-lim chemostat, doubling time 6 h
[2] = E. coli NCM3722 delta-clpP, growth: N-lim chemostat, doubling time 6 h
[3] = E. coli NCM3722 delta-hslV, growth: N-lim chemostat, doubling time 6 h
[4] = E. coli NCM3722 delta-lon, growth: N-lim chemostat, doubling time 6 h
[5] = E. coli NCM3722 delta-smpB, growth: N-lim chemostat, doubling time 6 h
[6] = wild type E. coli NCM3722, growth: C-lim chemostat, doubling time 3 h
[7] = wild type E. coli NCM3722, growth: C-lim chemostat, doubling time 6 h
[8] = wild type E. coli NCM3722, growth: C-lim chemostat, doubling time 12 h
[9] = wild type E. coli NCM3722, growth: N-lim chemostat, doubling time 6 h
[10] = wild type E. coli NCM3722, growth: N-lim chemostat, doubling time 12 h
[11] = wild type E. coli NCM3722, growth: P-lim chemostat, doubling time 6 h
[12] = wild type E. coli NCM3722, growth: P-lim chemostat, doubling time 12 h

Substance | total protein half-life in vivo [1] [h] | total protein half-life in vivo [2] [h] | total protein half-life in vivo [3] [h] | total protein half-life in vivo [4] [h] | total protein half-life in vivo [5] [h] | total protein half-life in vivo [6] [h] | total protein half-life in vivo [7] [h] | total protein half-life in vivo [8] [h] | total protein half-life in vivo [9] [h] | total protein half-life in vivo [10] [h] | total protein half-life in vivo [11] [h] | total protein half-life in vivo [12] [h]
MSEQETRGANEAIDFNDELRNRREKLAALRQQGVAFPNDFRRDHTSDQLHEEFDAKDNQELESLNIEVSVAGRMMTRRIMGKASFVTLQDVGGRIQLYVARDSLPEGVYNDQFKKWDLGDIIGARGTLFKTQTGELSIHCTELRLLTKALRPLPDKFHGLQDQEVRYRQRYLDLIANDKSRQTFVVRSKILAAIRQFMVARGFMEVETPMMQVIPGGASARPFITHHNALDLDMYLRIAPELYLKRLVVGGFERVFEINRNFRNEGISVRHNPEFTMMELYMAYADYHDLIELTESLFRTLAQEVLGTTKVTYGEHVFDFGKPFEKLTMREAIKKYRPETDMADLDNFDAAKALAESIGITVEKSWGLGRIVTEIFDEVAEAHLIQPTFITEYPAEVSPLARRNDVNPEITDRFEFFIGGREIGNGFSELNDAEDQAERFQEQVNAKAAGDDEAMFYDEDYVTALEYGLPPTAGLGIGIDRMIMLFTNSHTIRDVILFPAMRPQK [P0A8N5] | 5.8 ± 0.78 | 5.16 ± 0.085 | 4.88 ± 0.071 | 5.06 ± 0.16 | 4.87 ± 0.087 | 3.05 ± 0.11 | 5.71 ± 0.27 | 9.948 ± 0.028 | 4.74 ± 0.36 | 7.77 ± 0.82 | 5.55 ± 0.27 | 11.2 ± 0.22
MSKHDTDTSDQHAAKRRWLNAHEEGYHKAMGNRQVQMIAIGGAIGTGLFLGAGARLQMAGPALALVYLICGLFSFFILRALGELVLHRPSSGSFVSYAREFLGEKAAYVAGWMYFINWAMTGIVDITAVALYMHYWGAFGGVPQWVFALAALTIVGTMNMIGVKWFAEMEFWFALIKVLAIVTFLVVGTVFLGSGQPLDGNTTGFHLITDNGGFFPHGLLPALVLIQGVVFAFASIEMVGTAAGECKDPQTMVPKAINSVIWRIGLFYVGSVVLLVMLLPWSAYQAGQSPFVTFFSKLGVPYIGSIMNIVVLTAALSSLNSGLYCTGRILRSMAMGGSAPSFMAKMSRQHVPYAGILATLVVYVVGVFLNYLVPSRVFEIVLNFASLGIIASWAFIIVCQMRLRKAIKEGKAADVSFKLPGAPFTSWLTLLFLLSVLVLMAFDYPNGTYTIAALPIIGILLVIGWFGVRKRVAEIHSTAPVVEEDEEKQEIVFKPETAS |  | 4.52 | 4.74 ± 0.064 | 4.87 |  | > 4 |  | 11.4 | 4.73 | 10.3 |  | 
MKKTQRKEIENVTNITGVRQIELWRRDDLQHPRLDEVAEEVPVALVYNGISHVVMMASPKDLEYFALGFSLSEGIIESPRDIFGMDVVPSCNGLEVQIELSSRRFMGLKERRRALAGRTGCGVCGVEQLNDIGKPVQPLPFTQTFDLNKLDDALRHLNDFQPVGQLTGCTHAAAWMLPSGELVGGHEDVGRHVALDKLLGRRSQEGESWQQGAVLVSSRASYEMVQKSAMCGVEILFAVSAATTLAVEVAERCNLTLVGFCKPGRATVYTHPQRLSN | 5.53 ± 0.71 | > 8 | 3.83 ± 0.57 | 4.1 ± 0.3 | 3.793 ± 0.019 | 2.89 ± 0.25 | 4.79 ± 0.16 | 9.01 ± 0.31 | 3.88 ± 0.38 | 6.61 ± 0.14 | 4.99 ± 0.11 | 10.5 ± 0.64
MVSLEKNDHLMLARQLPLKSVALILAGGRGTRLKDLTNKRAKPAVHFGGKFRIIDFALSNCINSGIRRMGVITQYQSHTLVQHIQRGWSFFNEEMNEFVDLLPAQQRMKGENWYRGTADAVTQNLDIIRRYKAEYVVILAGDHIYKQDYSRMLIDHVEKGARCTVACMPVPIEEASAFGVMAVDENDKIIEFVEKPANPPSMPNDPSKSLASMGIYVFDADYLYELLEEDDRDENSSHDFGKDLIPKITEAGLAYAHPFPLSCVQSDPDAEPYWRDVGTLEAYWKANLDLASVVPELDMYDRNWPIRTYNESLPPAKFVQDRSGSHGMTLNSLVSGGCVISGSVVVQSVLFSRVRVNSFCNIDSAVLLPEVWVGRSCRLRRCVIDRACVIPEGMVIGENAEEDARRFYRSEEGIVLVTREMLRKLGHKQER [P0A6V1] | 6.16 ± 0.19 |  | 6.42 ± 1 | 5.94 ± 0.29 | 5.54 ± 0.52 | 3.34 ± 0.11 | 6.04 ± 0.72 | 12.2 ± 0.15 | 5.535 ± 0.042 | 9.99 ± 0.24 | 6.46 ± 0.65 | 12.2 ± 0.32
P76347 | 6.25 ± 0.88 | 1.86 |  |  |  |  |  |  |  | 3.04 |  | 
MATVPTRSGSPRQLTTKQTGDAWEAQARRWLEGKGLRFIAANVNERGGEIDLIMREGRTTIFVEVRYRRSALYGGAAASVTRSKQHKLLQTARLWLARHNGSFDTVDCRFDVVAFTGNEVEWIKDAFNDHS | 6.46 ± 0.81 |  | 2.03 |  | 2.14 |  | 2.97 | 2.89 ± 0.49 |  |  | 1.88 | 3.74
MANKPSAEELKKNLSEMQFYVTQNHGTEPPFTGRLLHNKRDGVYHCLICDAPLFHSQTKYDSGCGWPSFYEPVSEESIRYIKDLSHGMQRIEIRCGNCDAHLGHVFPDGPQPTGERYCVNSASLRFTDGENGEEING [P0A746] |  | 3.48 ± 0.34 | 3.1 ± 0.16 | 3.91 ± 0.56 | 2.55 ± 0.31 | 1.95 ± 0.59 | 4.02 ± 0.54 | 5.47 ± 0.75 | 3.22 ± 0.13 | 4.64 ± 0.16 | 2.79 ± 0.38 | 6.29 ± 0.15
MSVKIVIKPNTYFDSVSLMSISTRANKLDGVEQAFVAMATEMNKGVLKNLGLLTPELEQAKNGDLMIVINGKSGADNEQLLVEIEELFNTKAQSGSHEARYATIGSAKKHIPESNLAVISVNGLFAAREARQALQNDLNVMLFSDNVSVEDELALKQLAHEKGLLMMGPDCGTAIINGAALCFGNAVRRGNIGIVGASGTGSQELSVRIHEFGGGVSQLIGTGGRDLSEKIGGLMMLDAIGMLENDPQTEIIALISKPPAPAVARKVLERARACRKPVVVCFLDRGETPVDEQGLQFARGTKEAALKAVMLSGVKQENLDLHTLNQPLIADVRARLQPQQKYIRGLFCGGTLCDETMFAVMEKHGDVYSNIQPDPEFRLKDINRSIKHTFLDFGDDDFTNGKPHPMIDPTNRISRLIEEARDPEVAVIVMDFVLGFGSHEDPVGSTIETIKEAKAIAAAEGRELIILAYVLGTDLDTPSLEQQSQMLLDAGVILASSSTNTGLLAREFICKGEEA | 4.99 | 6.9 | 3.51 | 3.92 | 3.47 ± 0.37 | 3.06 | 4.99 ± 0.41 | 4.892 ± 0.0075 | 5.14 | 8.02 ± 1.4 | 4.47 | 7.02
